{
  "source": "patent US11965039B2",
  "about": "“Compstatin analogues and their medical uses” (priority 2018, dated 2024)",
  "key": {"[1]": {"target": "T1, Human C3 (Complement tech cat #A113c) (human, UniProt P01024 23-1663)", "T1 sequence (P01024 23-1663 limits assumed)": "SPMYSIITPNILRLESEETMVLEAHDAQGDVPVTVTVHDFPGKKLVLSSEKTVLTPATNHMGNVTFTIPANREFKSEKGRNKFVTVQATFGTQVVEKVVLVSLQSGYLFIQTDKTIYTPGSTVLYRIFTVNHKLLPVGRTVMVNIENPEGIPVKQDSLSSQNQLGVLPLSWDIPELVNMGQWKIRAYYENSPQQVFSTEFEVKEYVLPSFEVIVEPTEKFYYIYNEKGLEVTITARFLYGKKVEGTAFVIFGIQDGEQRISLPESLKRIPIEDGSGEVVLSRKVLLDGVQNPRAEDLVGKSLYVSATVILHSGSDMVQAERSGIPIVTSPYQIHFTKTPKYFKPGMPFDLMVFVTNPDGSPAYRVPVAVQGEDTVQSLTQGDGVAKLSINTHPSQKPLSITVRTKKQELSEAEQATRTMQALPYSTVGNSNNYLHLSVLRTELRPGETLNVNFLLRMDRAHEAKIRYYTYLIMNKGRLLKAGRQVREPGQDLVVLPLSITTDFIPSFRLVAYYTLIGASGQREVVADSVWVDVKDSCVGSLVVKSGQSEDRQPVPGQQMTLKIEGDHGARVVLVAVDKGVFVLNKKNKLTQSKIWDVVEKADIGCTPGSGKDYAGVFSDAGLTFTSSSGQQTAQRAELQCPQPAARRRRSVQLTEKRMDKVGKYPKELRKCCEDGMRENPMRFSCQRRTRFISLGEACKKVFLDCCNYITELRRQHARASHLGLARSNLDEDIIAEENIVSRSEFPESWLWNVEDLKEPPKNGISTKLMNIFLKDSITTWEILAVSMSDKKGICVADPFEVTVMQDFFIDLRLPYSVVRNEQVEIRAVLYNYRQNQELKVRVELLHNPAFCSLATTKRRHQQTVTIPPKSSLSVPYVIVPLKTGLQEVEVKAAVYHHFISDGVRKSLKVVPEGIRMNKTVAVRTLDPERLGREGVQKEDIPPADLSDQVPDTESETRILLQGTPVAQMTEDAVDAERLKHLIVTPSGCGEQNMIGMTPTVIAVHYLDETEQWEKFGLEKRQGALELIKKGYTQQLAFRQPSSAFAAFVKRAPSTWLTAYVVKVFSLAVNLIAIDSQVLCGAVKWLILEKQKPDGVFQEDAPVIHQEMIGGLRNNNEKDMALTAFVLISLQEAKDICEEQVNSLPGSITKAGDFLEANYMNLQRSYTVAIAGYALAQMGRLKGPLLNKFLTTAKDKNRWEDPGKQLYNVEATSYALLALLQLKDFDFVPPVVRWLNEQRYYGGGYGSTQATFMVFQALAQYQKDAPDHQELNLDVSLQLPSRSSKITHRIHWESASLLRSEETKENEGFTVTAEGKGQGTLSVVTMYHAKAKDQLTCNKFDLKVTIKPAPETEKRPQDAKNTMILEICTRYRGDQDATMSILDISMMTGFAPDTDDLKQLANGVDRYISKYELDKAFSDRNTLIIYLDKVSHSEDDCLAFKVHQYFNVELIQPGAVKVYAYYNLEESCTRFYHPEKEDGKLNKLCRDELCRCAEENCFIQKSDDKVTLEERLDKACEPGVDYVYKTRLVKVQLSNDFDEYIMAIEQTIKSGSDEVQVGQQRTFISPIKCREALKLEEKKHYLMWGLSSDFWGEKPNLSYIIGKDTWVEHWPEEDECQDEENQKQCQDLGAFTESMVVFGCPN", "test": "cell-based or functional assay"}, "[2]": {"target": "T1, Human C3 (Complement tech cat #A113c)", "test": "SPR (Biacore T200), human C3 immobilised, peptide injected, 1:1 fit", "procedure": "Surface plasmon resonance (SPR) was used to characterize peptides with respect to their binding affinity (Kd) for C3. Human C3 (Complement tech cat #A113c) was immobilised on individual flow cells of CM5 sensor chips (GE Healthcare) using standard amine coupling to a density of approximately 3000 resonance units (RU) in a buffer consisting of 10 mM phosphate pH 7.4, 150 mM NaCl, 0.05% Tween20.\nFor interaction experiments a multi-cycle experiment approach was used and performed using a BiacoreT200™ instrument (GE Healthcare) at 25° C. Peptides were injected in increasing concentration series (6-8 different concentrations) for 60-120 sat a flow rate of 30 µL/min in a buffer consisting of 10 mM Tris buffer at pH 7.4, with 150 mM NaCl and 0.05% Tween20. This was followed by a dissociation period for up to 10 min. The C3 surface was regenerated between runs by a 45 s injection of 3 M MgCl_2."}},
  "note": "Starred links: 1 amine or outer side, 2 acyl side, 3 side chain; linkers in the order of their positions; H or OH if unused. Positions of bridges follow the written chain, without caps; N, C: chain ends. Non-standard residues stand in square brackets, D forms with d. Groups on a side chain read outwards from the residue. *: point of attachment. Trp(1-Me) = Cn1cc(C[C@H](N)C(=O)O)c2ccccc21; C18 diacid = O=C(O)CCCCCCCCCCCCCCCCC(=O)*; C16 diacid = O=C(O)CCCCCCCCCCCCCCC(=O)*; γGlu = O=C(O)[C@H](CCC(=O)[*:2])N[*:1]; AEEA = NCCOCCOCC(=O)O; Sar = CNCC(=O)O",
  "data": [
    {"binder": "Ac-SAYCI[Trp(1-Me)]QDWGEHRC[Sar]EK([γGlu-Gly-γGlu-C18 diacid])-NH2 (disulfide 4-14; SMILES CC[C@H](C)[C@@H]1NC(=O)[C@@H](NC(=O)[C@H](Cc2ccc(O)cc2)NC(=O)[C@H](C)NC(=O)[C@H](CO)NC(C)=O)CSSC[C@@H](C(=O)N(C)CC(=O)N[C@@H](CCC(=O)O)C(=O)N[C@@H](CCCCNC(=O)CC[C@H](NC(=O)CNC(=O)CC[C@H](NC(=O)CCCCCCCCCCCCCCCCC(=O)O)C(=O)O)C(=O)O)C(N)=O)NC(=O)[C@H](CCCNC(=N)N)NC(=O)[C@H](Cc2c[nH]cn2)NC(=O)[C@H](CCC(=O)O)NC(=O)CNC(=O)[C@H](Cc2c[nH]c3ccccc23)NC(=O)[C@H](CC(=O)O)NC(=O)[C@H](CCC(N)=O)NC(=O)[C@H](Cc2cn(C)c3ccccc23)NC1=O)", "note": "[Compound 106]", "values": [
      {"measurement": "inhibition of hemolysis IC50", "setting": "[1]", "value": "< 250", "unit": "nM"},
      {"measurement": "Kd", "setting": "[2]", "value": 5.4, "unit": "nM"}
    ]},
    {"binder": "Ac-FCI[Trp(1-Me)]QDWGEHRCTGAESK([AEEA-AEEA-γGlu-C16 diacid])-NH2 (disulfide 2-12; SMILES CC[C@H](C)[C@@H]1NC(=O)[C@@H](NC(=O)[C@H](Cc2ccccc2)NC(C)=O)CSSC[C@@H](C(=O)N[C@H](C(=O)NCC(=O)N[C@@H](C)C(=O)N[C@@H](CCC(=O)O)C(=O)N[C@@H](CO)C(=O)N[C@@H](CCCCNC(=O)COCCOCCNC(=O)COCCOCCNC(=O)CC[C@H](NC(=O)CCCCCCCCCCCCCCC(=O)O)C(=O)O)C(N)=O)[C@@H](C)O)NC(=O)[C@H](CCCNC(=N)N)NC(=O)[C@H](Cc2c[nH]cn2)NC(=O)[C@H](CCC(=O)O)NC(=O)CNC(=O)[C@H](Cc2c[nH]c3ccccc23)NC(=O)[C@H](CC(=O)O)NC(=O)[C@H](CCC(N)=O)NC(=O)[C@H](Cc2cn(C)c3ccccc23)NC1=O)", "note": "[Compound 102]", "values": [
      {"measurement": "inhibition of hemolysis IC50", "setting": "[1]", "value": "< 100", "unit": "nM"},
      {"measurement": "Kd", "setting": "[2]", "value": 1.7, "unit": "nM"}
    ]},
    {"binder": "Ac-ICI[Trp(1-Me)]QDWGEHRCT-NH2 (disulfide 2-12; SMILES CC[C@H](C)[C@H](NC(C)=O)C(=O)N[C@H]1CSSC[C@@H](C(=O)N[C@H](C(N)=O)[C@@H](C)O)NC(=O)[C@H](CCCNC(=N)N)NC(=O)[C@H](Cc2c[nH]cn2)NC(=O)[C@H](CCC(=O)O)NC(=O)CNC(=O)[C@H](Cc2c[nH]c3ccccc23)NC(=O)[C@H](CC(=O)O)NC(=O)[C@H](CCC(N)=O)NC(=O)[C@H](Cc2cn(C)c3ccccc23)NC(=O)[C@H]([C@@H](C)CC)NC1=O)", "note": "[Compound 4]", "values": [
      {"measurement": "inhibition of hemolysis IC50", "setting": "[1]", "value": "< 100", "unit": "nM"},
      {"measurement": "Kd", "setting": "[2]", "value": 1.5, "unit": "nM"}
    ]},
    {"binder": "Ac-EGSAYCI[Trp(1-Me)]QDWGEHRC[Sar]EGK([AEEA-AEEA-γGlu-C16 diacid])-NH2 (disulfide 6-16; SMILES CC[C@H](C)[C@@H]1NC(=O)[C@@H](NC(=O)[C@H](Cc2ccc(O)cc2)NC(=O)[C@H](C)NC(=O)[C@H](CO)NC(=O)CNC(=O)[C@H](CCC(=O)O)NC(C)=O)CSSC[C@@H](C(=O)N(C)CC(=O)N[C@@H](CCC(=O)O)C(=O)NCC(=O)N[C@@H](CCCCNC(=O)COCCOCCNC(=O)COCCOCCNC(=O)CC[C@H](NC(=O)CCCCCCCCCCCCCCC(=O)O)C(=O)O)C(N)=O)NC(=O)[C@H](CCCNC(=N)N)NC(=O)[C@H](Cc2c[nH]cn2)NC(=O)[C@H](CCC(=O)O)NC(=O)CNC(=O)[C@H](Cc2c[nH]c3ccccc23)NC(=O)[C@H](CC(=O)O)NC(=O)[C@H](CCC(N)=O)NC(=O)[C@H](Cc2cn(C)c3ccccc23)NC1=O)", "note": "[Compound 104]", "values": [
      {"measurement": "inhibition of hemolysis IC50", "setting": "[1]", "value": "< 100", "unit": "nM"},
      {"measurement": "Kd", "setting": "[2]", "value": 34, "unit": "nM"}
    ]},
    {"binder": "Ac-ICIWQDWGEHRCTEGK([AEEA-AEEA-γGlu-C16 diacid])-NH2 (disulfide 2-12; SMILES CC[C@H](C)[C@H](NC(C)=O)C(=O)N[C@H]1CSSC[C@@H](C(=O)N[C@H](C(=O)N[C@@H](CCC(=O)O)C(=O)NCC(=O)N[C@@H](CCCCNC(=O)COCCOCCNC(=O)COCCOCCNC(=O)CC[C@H](NC(=O)CCCCCCCCCCCCCCC(=O)O)C(=O)O)C(N)=O)[C@@H](C)O)NC(=O)[C@H](CCCNC(=N)N)NC(=O)[C@H](Cc2c[nH]cn2)NC(=O)[C@H](CCC(=O)O)NC(=O)CNC(=O)[C@H](Cc2c[nH]c3ccccc23)NC(=O)[C@H](CC(=O)O)NC(=O)[C@H](CCC(N)=O)NC(=O)[C@H](Cc2c[nH]c3ccccc23)NC(=O)[C@H]([C@@H](C)CC)NC1=O)", "note": "[Compound 93]", "values": [
      {"measurement": "inhibition of hemolysis IC50", "setting": "[1]", "value": "< 500", "unit": "nM"}
    ]},
    {"binder": "Ac-EGSAFCI[Trp(1-Me)]QDWGEHRC[Sar]E-NH2 (disulfide 6-16; SMILES CC[C@H](C)[C@@H]1NC(=O)[C@@H](NC(=O)[C@H](Cc2ccccc2)NC(=O)[C@H](C)NC(=O)[C@H](CO)NC(=O)CNC(=O)[C@H](CCC(=O)O)NC(C)=O)CSSC[C@@H](C(=O)N(C)CC(=O)N[C@@H](CCC(=O)O)C(N)=O)NC(=O)[C@H](CCCNC(=N)N)NC(=O)[C@H](Cc2c[nH]cn2)NC(=O)[C@H](CCC(=O)O)NC(=O)CNC(=O)[C@H](Cc2c[nH]c3ccccc23)NC(=O)[C@H](CC(=O)O)NC(=O)[C@H](CCC(N)=O)NC(=O)[C@H](Cc2cn(C)c3ccccc23)NC1=O)", "note": "[Compound 53]", "values": [
      {"measurement": "inhibition of hemolysis IC50", "setting": "[1]", "value": "< 100", "unit": "nM"},
      {"measurement": "Kd", "setting": "[2]", "value": 1.4, "unit": "nM"}
    ]},
    {"binder": "Ac-EGSAYCI[Trp(1-Me)]QDWGEHRC[Sar]E-NH2 (disulfide 6-16; SMILES CC[C@H](C)[C@@H]1NC(=O)[C@@H](NC(=O)[C@H](Cc2ccc(O)cc2)NC(=O)[C@H](C)NC(=O)[C@H](CO)NC(=O)CNC(=O)[C@H](CCC(=O)O)NC(C)=O)CSSC[C@@H](C(=O)N(C)CC(=O)N[C@@H](CCC(=O)O)C(N)=O)NC(=O)[C@H](CCCNC(=N)N)NC(=O)[C@H](Cc2c[nH]cn2)NC(=O)[C@H](CCC(=O)O)NC(=O)CNC(=O)[C@H](Cc2c[nH]c3ccccc23)NC(=O)[C@H](CC(=O)O)NC(=O)[C@H](CCC(N)=O)NC(=O)[C@H](Cc2cn(C)c3ccccc23)NC1=O)", "note": "[Compound 54]", "values": [
      {"measurement": "inhibition of hemolysis IC50", "setting": "[1]", "value": "< 100", "unit": "nM"},
      {"measurement": "Kd", "setting": "[2]", "value": 3, "unit": "nM"}
    ]},
    {"binder": "{C16 diacid}-EGSEYCI[Trp(1-Me)]QDWGEHRC[Sar]E-NH2 (disulfide 6-16; also: places 15-carboxy-pentadecanoyl on side chain of Glu1, mods on N-terminus)", "note": "[Compound 107]", "values": [
      {"measurement": "inhibition of hemolysis IC50", "setting": "[1]", "value": "< 100", "unit": "nM"},
      {"measurement": "Kd", "setting": "[2]", "value": 6.1, "unit": "nM"}
    ]},
    {"binder": "Ac-EGSAYCI[Trp(1-Me)]QDWGEHRC[Sar]EK[γGlu]K([AEEA-AEEA-γGlu-C18 diacid])-NH2 (disulfide 6-16; SMILES CC[C@H](C)[C@@H]1NC(=O)[C@@H](NC(=O)[C@H](Cc2ccc(O)cc2)NC(=O)[C@H](C)NC(=O)[C@H](CO)NC(=O)CNC(=O)[C@H](CCC(=O)O)NC(C)=O)CSSC[C@@H](C(=O)N(C)CC(=O)N[C@@H](CCC(=O)O)C(=O)N[C@@H](CCCCN)C(=O)N[C@@H](CCC(=O)N[C@@H](CCCCNC(=O)COCCOCCNC(=O)COCCOCCNC(=O)CC[C@H](NC(=O)CCCCCCCCCCCCCCCCC(=O)O)C(=O)O)C(N)=O)C(=O)O)NC(=O)[C@H](CCCNC(=N)N)NC(=O)[C@H](Cc2c[nH]cn2)NC(=O)[C@H](CCC(=O)O)NC(=O)CNC(=O)[C@H](Cc2c[nH]c3ccccc23)NC(=O)[C@H](CC(=O)O)NC(=O)[C@H](CCC(N)=O)NC(=O)[C@H](Cc2cn(C)c3ccccc23)NC1=O)", "note": "[Compound 111]", "values": [
      {"measurement": "inhibition of hemolysis IC50", "setting": "[1]", "value": "< 100", "unit": "nM"},
      {"measurement": "Kd", "setting": "[2]", "value": 8.2, "unit": "nM"}
    ]}
  ]
}
